In the assay the target is CD63-GLucC (CD63 truncated at Val206 fused to the C-terminal fragment of Gaussia luciferase) (UniProt P08962). As to the kind of experiment: split reporter (BiFC, NanoBiT); Gaussia luciferase protein complementation assay (PCA); GLucN and GLucC fusion plasmids co-transfected 1:1 into HEK293FT; membranes disrupted by two freeze-thaw cycles; luminescence with 10 uM coelenterazine.
Chain of UniProt P08962 (P08962 1-206): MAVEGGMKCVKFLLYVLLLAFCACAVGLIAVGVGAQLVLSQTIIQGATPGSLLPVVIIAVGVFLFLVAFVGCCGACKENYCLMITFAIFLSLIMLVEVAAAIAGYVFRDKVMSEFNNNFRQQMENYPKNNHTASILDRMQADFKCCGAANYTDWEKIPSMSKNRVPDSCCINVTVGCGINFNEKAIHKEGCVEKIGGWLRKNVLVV

Substance “GLucN-T1ΔC (TIMP-1 truncated after L168) (domain or fragment)” gave a loss of the ability to bind CD63 against full-length TIMP-1 of 83%.

The record behind these values is paper PMC7005868.
